Data as given in article PMC12273641, “A cryo-electron microscopy structure of yeast Pex5 in complex with a cargo uncovers a novel binding interface” (Journal of Cell Science, 2025).

How the values were obtained:
[1] = target: T1, Pex5 (full-length Saccharomyces cerevisiae Pex5, 1-612, His-Sumo fusion cleaved off) (Saccharomyces cerevisiae, UniProt P35056 1-612); experiment: cryo-EM structure; single-particle cryo-EM of the co-expressed, co-purified Pex5–Eci1 complex (2 mg/ml, in PBS); 2.7 Å global, 2.9 Å local refinement of Pex5 and the interface; conditions: both partners purified
T1 construct: Pex5, peroxisomal PTS1 cargo factor, Saccharomyces cerevisiae, full-length (1-612), cloned into pET28-bdSumo; only L276-F612 is resolved in the cryo-EM map; also called yeast Pex5; full-length yeast Pex5; source: for cryo-EM co-expressed with Eci1 and co-purified (Ni beads, elution by bdSumo protease, SEC); not shown: His tag, N-terminal, cleaved; bdSumo, N-terminal, cleaved
T1 sequence (looked up): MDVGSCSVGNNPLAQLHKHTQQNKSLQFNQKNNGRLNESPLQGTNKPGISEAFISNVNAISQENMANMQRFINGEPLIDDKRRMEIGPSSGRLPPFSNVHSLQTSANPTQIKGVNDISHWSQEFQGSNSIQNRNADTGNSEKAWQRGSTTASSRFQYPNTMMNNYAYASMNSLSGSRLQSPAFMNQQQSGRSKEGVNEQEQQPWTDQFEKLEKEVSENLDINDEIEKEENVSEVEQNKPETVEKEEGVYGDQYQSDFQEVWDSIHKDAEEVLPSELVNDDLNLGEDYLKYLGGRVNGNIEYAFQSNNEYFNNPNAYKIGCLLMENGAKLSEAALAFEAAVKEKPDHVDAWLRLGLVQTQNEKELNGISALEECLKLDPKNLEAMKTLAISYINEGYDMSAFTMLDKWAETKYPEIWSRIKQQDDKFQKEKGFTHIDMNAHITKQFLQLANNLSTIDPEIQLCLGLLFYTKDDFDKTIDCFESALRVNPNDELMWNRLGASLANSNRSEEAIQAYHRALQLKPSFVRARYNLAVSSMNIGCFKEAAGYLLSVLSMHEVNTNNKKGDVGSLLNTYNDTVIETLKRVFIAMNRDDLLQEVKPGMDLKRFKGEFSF

[2] = target: the molecule itself; experiment: as above

stoichiometry N [1]: 6 Eci1 per Pex5
B1: FLAG-Eci1 wild type (Saccharomyces cerevisiae Δ3,Δ2-enoyl-CoA isomerase 1) (natural protein, UniProt Q05871 1-280, looked up)
chain: MSQEIRQNEKISYRIEGPFFIIHLMNPDNLNALEGEDYIYLGELLELADRNRDVYFTIIQSSGRFFSSGADFKGIAKAQGDDTNKYPSETSKWVSNFVARNVYVTDAFIKHSKVLICCLNGPAIGLSAALVALCDIVYSINDKVYLLYPFANLGLITEGGTTVSLPLKFGTNTTYECLMFNKPFKYDIMCENGFISKNFNMPSSNAEAFNAKVLEELREKVKGLYLPSCLGMKKLLKSNHIDAFNKANSVEVNESLKYWVDGEPLKRFRQLGSKQRKHRL
notes: Eci1 (Δ3,Δ2-enoyl-CoA isomerase 1), Saccharomyces cerevisiae, wild type, M1-L280, ends in the PTS1 tripeptide 278HRL280; cloned into the first open reading frame of pACYCDuet-1; A TEV cleavage site follows the N-terminal FLAG tag; no TEV cleavage is described; Hexamer by cryo-EM; also called Eci1 WT; Eci1 (WT); source: E. coli BL21(DE3): co-expressed with Pex5, in lysate (pull-down); purified …
stoichiometry N [2]: 6
